{
  "source": "paper PMC4104448",
  "about": "(2014)",
  "binders": {"B1": {"name": "Biotinylated human β-glucocerebrosidase (residues 40A-536R) (enzyme)", "chain": "ARPCIPKSFGYSSVVCVCNATYCDSFDPPTFPALGTFSRYESTRSGRRMELSMGPIQANHTGTGLLLTLQPEQKFQKVKGFGGAMTDAAALNILALSPPAQNLLLKSYFSEEGIGYNIIRVPMASCDFSIRTYTYADTPDDFQLHNFSLPEEDTKLKIPLIHRALQLAQRPVSLLASPWTSPTWLKTNGAVNGKGSLKGQPGDIYHQTWARYFVKFLDAYAEHKLQFWAVTAENEPSAGLLSGYPFQCLGFTPEHQRDFIARDLGPTLANSTHHNVRLLMLDDQRLLLPHWAKVVLTDPEAAKYVHGIAVHWYLDFLAPAKATLGETHRLFPNTMLFASEACVGSKFWEQSVRLGSWDRGMQYSHSIITNLLYHVVGWTDWNLALNPEGGPNWVRNFVDSPIIVDITKDTFYKQPMFYHLGHFSKFIPEGSQRVGLVASQKNDLDAVALMHPDGSAVVVVLNRSSKDVPLTIKDPAVGFLETISPGYSIHTYLWRRQ", "modifications": "biotin (in vivo biotinylated by BirA)"}},
  "key": {"H150T mutant LIMP-2 [1]": {"target": "T1, H150T mutant LIMP-2 (human, UniProt Q14108 28-432, H150T)", "T1 sequence": "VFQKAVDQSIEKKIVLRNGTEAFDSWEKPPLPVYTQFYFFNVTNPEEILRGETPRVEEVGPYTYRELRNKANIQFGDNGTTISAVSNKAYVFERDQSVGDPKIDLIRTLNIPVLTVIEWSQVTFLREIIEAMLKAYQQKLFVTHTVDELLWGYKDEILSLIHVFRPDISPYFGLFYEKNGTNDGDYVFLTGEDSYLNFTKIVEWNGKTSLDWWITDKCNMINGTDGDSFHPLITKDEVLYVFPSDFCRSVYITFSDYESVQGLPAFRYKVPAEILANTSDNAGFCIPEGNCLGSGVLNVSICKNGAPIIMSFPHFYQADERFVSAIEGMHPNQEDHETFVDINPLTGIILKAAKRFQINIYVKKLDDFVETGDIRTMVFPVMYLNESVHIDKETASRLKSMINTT", "experiment": "SPR; pH 5.5"}, "H150T mutant LIMP-2 [2]": {"target": "T1, H150T mutant LIMP-2", "experiment": "SPR; pH 6.5"}, "[3]": {"target": "B1", "experiment": "SPR"}, "[4]": {"target": "B1", "experiment": "SPR; 2 mM G6P"}, "[5]": {"target": "T2, Biotinylated human CI-MPR domains I-XV (residues 41Q-G2293) (human, UniProt P11717 41-2293, biotin (in vivo biotinylated by BirA))", "T2 sequence (P11717 41-2293)": "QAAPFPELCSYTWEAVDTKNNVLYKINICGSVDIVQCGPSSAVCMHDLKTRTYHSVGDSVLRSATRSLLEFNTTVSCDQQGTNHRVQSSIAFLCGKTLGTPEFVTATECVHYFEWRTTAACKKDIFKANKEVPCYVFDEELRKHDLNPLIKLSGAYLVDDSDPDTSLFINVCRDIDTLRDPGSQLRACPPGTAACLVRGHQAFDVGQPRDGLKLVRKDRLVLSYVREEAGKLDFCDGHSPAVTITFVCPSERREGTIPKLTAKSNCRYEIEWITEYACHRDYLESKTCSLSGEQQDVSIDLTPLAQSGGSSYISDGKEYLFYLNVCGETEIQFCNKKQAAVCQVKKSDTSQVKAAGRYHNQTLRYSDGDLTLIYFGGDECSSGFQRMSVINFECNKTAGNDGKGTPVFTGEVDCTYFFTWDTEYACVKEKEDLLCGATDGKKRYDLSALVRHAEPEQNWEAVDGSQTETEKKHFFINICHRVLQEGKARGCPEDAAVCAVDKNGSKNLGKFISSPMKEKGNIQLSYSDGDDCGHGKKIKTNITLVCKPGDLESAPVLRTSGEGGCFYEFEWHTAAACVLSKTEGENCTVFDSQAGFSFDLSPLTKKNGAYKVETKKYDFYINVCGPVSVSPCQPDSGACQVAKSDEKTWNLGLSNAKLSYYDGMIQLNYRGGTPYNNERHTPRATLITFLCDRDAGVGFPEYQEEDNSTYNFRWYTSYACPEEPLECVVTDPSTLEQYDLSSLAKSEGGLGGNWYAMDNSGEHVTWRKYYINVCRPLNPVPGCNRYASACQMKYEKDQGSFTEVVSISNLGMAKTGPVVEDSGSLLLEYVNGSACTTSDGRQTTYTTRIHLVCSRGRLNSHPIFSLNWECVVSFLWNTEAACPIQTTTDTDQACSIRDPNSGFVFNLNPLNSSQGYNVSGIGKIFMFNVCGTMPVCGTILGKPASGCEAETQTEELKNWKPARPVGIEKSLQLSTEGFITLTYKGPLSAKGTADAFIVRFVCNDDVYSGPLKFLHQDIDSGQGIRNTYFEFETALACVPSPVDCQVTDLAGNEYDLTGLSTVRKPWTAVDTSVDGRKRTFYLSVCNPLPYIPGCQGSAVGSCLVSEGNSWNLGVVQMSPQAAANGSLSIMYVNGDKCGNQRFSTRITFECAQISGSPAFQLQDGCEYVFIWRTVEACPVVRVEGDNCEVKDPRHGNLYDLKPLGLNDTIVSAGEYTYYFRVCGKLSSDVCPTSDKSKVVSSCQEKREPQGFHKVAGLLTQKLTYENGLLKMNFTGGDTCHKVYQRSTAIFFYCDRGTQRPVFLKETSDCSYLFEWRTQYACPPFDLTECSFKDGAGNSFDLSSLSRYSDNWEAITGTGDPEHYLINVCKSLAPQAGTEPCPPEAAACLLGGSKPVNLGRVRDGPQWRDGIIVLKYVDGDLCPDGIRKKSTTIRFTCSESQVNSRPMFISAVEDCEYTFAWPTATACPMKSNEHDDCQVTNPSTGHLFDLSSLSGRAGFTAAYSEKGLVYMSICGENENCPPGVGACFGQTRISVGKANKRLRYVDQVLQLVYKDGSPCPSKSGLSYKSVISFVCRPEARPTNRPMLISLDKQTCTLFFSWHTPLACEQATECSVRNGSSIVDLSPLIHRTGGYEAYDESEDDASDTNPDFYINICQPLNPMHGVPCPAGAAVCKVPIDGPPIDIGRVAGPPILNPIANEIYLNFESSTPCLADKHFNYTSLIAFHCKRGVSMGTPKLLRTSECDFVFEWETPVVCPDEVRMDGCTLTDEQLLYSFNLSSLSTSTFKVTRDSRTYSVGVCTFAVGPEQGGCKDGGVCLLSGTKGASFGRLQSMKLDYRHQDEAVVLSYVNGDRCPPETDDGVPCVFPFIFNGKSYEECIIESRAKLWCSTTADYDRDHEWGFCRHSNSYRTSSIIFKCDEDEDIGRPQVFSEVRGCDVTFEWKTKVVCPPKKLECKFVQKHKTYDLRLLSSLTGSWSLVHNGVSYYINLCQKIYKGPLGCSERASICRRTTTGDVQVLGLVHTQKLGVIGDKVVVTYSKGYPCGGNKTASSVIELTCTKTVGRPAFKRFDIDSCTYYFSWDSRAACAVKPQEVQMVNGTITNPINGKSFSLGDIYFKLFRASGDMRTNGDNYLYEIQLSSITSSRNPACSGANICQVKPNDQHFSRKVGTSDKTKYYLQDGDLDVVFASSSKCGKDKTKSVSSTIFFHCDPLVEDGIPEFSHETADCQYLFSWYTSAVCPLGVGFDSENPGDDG", "experiment": "SPR; 2 mM G6P"}, "[6]": {"target": "B1", "experiment": "SPR; 2 mM M6P"}, "[7]": {"target": "B1", "experiment": "SPR; 2 mM mannose"}, "[8]": {"target": "T2, Biotinylated human CI-MPR domains I-XV …", "experiment": "SPR; 2 mM mannose"}, "[9]": {"target": "B1", "experiment": "SPR; pH 6.5"}, "[10]": {"target": "T2, Biotinylated human CI-MPR domains I-XV …", "experiment": "SPR; with 2 mM mannose"}, "[11]": {"target": "T2, Biotinylated human CI-MPR domains I-XV …", "experiment": "SPR; buffer without sugar"}},
  "data": [
    {"binder": "B1", "values": [
      {"measurement": "Kd", "setting": "H150T mutant LIMP-2 [1]", "value": 2100, "unit": "nM"},
      {"measurement": "Kd", "setting": "H150T mutant LIMP-2 [2]", "value": 2300, "unit": "nM"}
    ]},
    {"binder": "Human LIMP-2 luminal domain (residues 28-431) produced from HEK293T cells, with full glycosylation (domain or fragment, full glycosylation) VFQKAVDQSIEKKIVLRNGTEAFDSWEKPPLPVYTQFYFFNVTNPEEILRGETPRVEEVGPYTYRELRNKANIQFGDNGTTISAVSNKAYVFERDQSVGDPKIDLIRTLNIPVLTVIEWSQVHFLREIIEAMLKAYQQKLFVTHTVDELLWGYKDEILSLIHVFRPDISPYFGLFYEKNGTNDGDYVFLTGEDSYLNFTKIVEWNGKTSLDWWITDKCNMINGTDGDSFHPLITKDEVLYVFPSDFCRSVYITFSDYESVQGLPAFRYKVPAEILANTSDNAGFCIPEGNCLGSGVLNVSICKNGAPIIMSFPHFYQADERFVSAIEGMHPNQEDHETFVDINPLTGIILKAAKRFQINIYVKKLDDFVETGDIRTMVFPVMYLNESVHIDKETASRLKSMINT", "values": [
      {"measurement": "Kd", "setting": "[3]", "value": 2060, "unit": "nM"},
      {"measurement": "Kd", "setting": "[4]", "value": 1800, "unit": "nM"},
      {"measurement": "Kd", "setting": "[5]", "value": 1160, "unit": "nM"},
      {"measurement": "Kd", "setting": "[6]", "value": 2100, "unit": "nM"},
      {"measurement": "Kd", "setting": "[7]", "value": 2830, "unit": "nM"},
      {"measurement": "Kd", "setting": "[8]", "value": 1200, "unit": "nM"}
    ]},
    {"binder": "Wild-type LIMP-2 (soluble luminal domain; producing cells not stated for the experiment) (domain or fragment) VFQKAVDQSIEKKIVLRNGTEAFDSWEKPPLPVYTQFYFFNVTNPEEILRGETPRVEEVGPYTYRELRNKANIQFGDNGTTISAVSNKAYVFERDQSVGDPKIDLIRTLNIPVLTVIEWSQVHFLREIIEAMLKAYQQKLFVTHTVDELLWGYKDEILSLIHVFRPDISPYFGLFYEKNGTNDGDYVFLTGEDSYLNFTKIVEWNGKTSLDWWITDKCNMINGTDGDSFHPLITKDEVLYVFPSDFCRSVYITFSDYESVQGLPAFRYKVPAEILANTSDNAGFCIPEGNCLGSGVLNVSICKNGAPIIMSFPHFYQADERFVSAIEGMHPNQEDHETFVDINPLTGIILKAAKRFQINIYVKKLDDFVETGDIRTMVFPVMYLNESVHIDKETASRLKSMINT", "values": [
      {"measurement": "Kd", "setting": "[9]", "value": 1200, "unit": "nM"}
    ]},
    {"binder": "Human LIMP-2 luminal domain produced from HEK293S (GNTI-) cells and deglycosylated with endoglycosidase F1 (domain or fragment, glycans trimmed to a single N-acetylglucosamine with endoglycosidase F1) VFQKAVDQSIEKKIVLRNGTEAFDSWEKPPLPVYTQFYFFNVTNPEEILRGETPRVEEVGPYTYRELRNKANIQFGDNGTTISAVSNKAYVFERDQSVGDPKIDLIRTLNIPVLTVIEWSQVHFLREIIEAMLKAYQQKLFVTHTVDELLWGYKDEILSLIHVFRPDISPYFGLFYEKNGTNDGDYVFLTGEDSYLNFTKIVEWNGKTSLDWWITDKCNMINGTDGDSFHPLITKDEVLYVFPSDFCRSVYITFSDYESVQGLPAFRYKVPAEILANTSDNAGFCIPEGNCLGSGVLNVSICKNGAPIIMSFPHFYQADERFVSAIEGMHPNQEDHETFVDINPLTGIILKAAKRFQINIYVKKLDDFVETGDIRTMVFPVMYLNESVHIDKETASRLKSMINT", "values": [
      {"measurement": "Kd", "setting": "[3]", "value": 3000, "unit": "nM"}
    ]},
    {"binder": "Human LIMP-2 luminal domain (residues 28-431) produced from HEK293S (GnTI-) cells, with limited glycosylation (domain or fragment, N-linked P-Man9GlcNAc2 (with terminal mannose 6-phosphate) at N325; sugars on all nine N-linked glycosylation sites, limited processing) VFQKAVDQSIEKKIVLRNGTEAFDSWEKPPLPVYTQFYFFNVTNPEEILRGETPRVEEVGPYTYRELRNKANIQFGDNGTTISAVSNKAYVFERDQSVGDPKIDLIRTLNIPVLTVIEWSQVHFLREIIEAMLKAYQQKLFVTHTVDELLWGYKDEILSLIHVFRPDISPYFGLFYEKNGTNDGDYVFLTGEDSYLNFTKIVEWNGKTSLDWWITDKCNMINGTDGDSFHPLITKDEVLYVFPSDFCRSVYITFSDYESVQGLPAFRYKVPAEILANTSDNAGFCIPEGNCLGSGVLNVSICKNGAPIIMSFPHFYQADERFVSAIEGMHPNQEDHETFVDINPLTGIILKAAKRFQINIYVKKLDDFVETGDIRTMVFPVMYLNESVHIDKETASRLKSMINT", "values": [
      {"measurement": "Kd", "setting": "[10]", "value": 1880, "unit": "nM"},
      {"measurement": "Kd", "setting": "[11]", "value": 1800, "unit": "nM"}
    ]}
  ]
}
